From publication PMC4619609

Legend:
Test in all cases: ELISA
[1] = molecular target: mAb 830A (V2i); settings: mAbs (10 µg/ml); gp120s from virus lysates; parent: est. 2.1; read off a plot
[2] = molecular target: mAb 2219 (V3); settings: mAbs (10 µg/ml); gp120s from virus lysates; parent: est. 2.2; read off a plot
[3] = molecular target: mAb 1393A (V2i); settings: mAbs (10 µg/ml); gp120s from virus lysates; parent: est. 2.2; read off a plot
[4] = molecular target: mAb 2158 (V2i); settings: mAbs (10 µg/ml); gp120s from virus lysates; parent: est. 2.0; read off a plot
[5] = molecular target: mAb 1418 (Ctrl); settings: mAbs (10 µg/ml); gp120s from virus lysates; parent: est. 0.21; read off a plot
[6] = molecular target: mAb 1357 (V2i); settings: mAbs (10 µg/ml), gp120s from virus lysates
[7] = molecular target: recombinant CD4-IgG2 protein (UniProt P01730); settings: 10 µg/ml; gp120s from virus lysates; parent: est. 3.7; read off a plot
[8] = molecular target: mAb 1361 (V2i); settings: mAbs (10 µg/ml); gp120s from virus lysates; parent: est. 2.8; read off a plot
[9] = molecular target: mAb 1331 (CD4bs); settings: mAbs (10 µg/ml); gp120s from virus lysates; parent: est. 2.0; read off a plot

Substance: gp120 of ZM109 WT R153E
- response [1]: 2 OD 405nm
- response [2]: 2.6 OD 405nm
- response [3]: 2.4 OD 405nm
- response [4]: 1.7 OD 405nm
- response [5]: 0.17 OD 405nm
- ratio to parent [6]: 3 x
- response ([6]; parent: est. 0.46, read off a plot): 1.5 OD 405nm
- response [7]: 3.6 OD 405nm
- response [8]: 2.3 OD 405nm
- response [9]: 1.9 OD 405nm
